To fix the notation:
T1: commercial shed CEA (BioRad) (human, UniProt P06731 35-685, limits assumed)
T1 sequence: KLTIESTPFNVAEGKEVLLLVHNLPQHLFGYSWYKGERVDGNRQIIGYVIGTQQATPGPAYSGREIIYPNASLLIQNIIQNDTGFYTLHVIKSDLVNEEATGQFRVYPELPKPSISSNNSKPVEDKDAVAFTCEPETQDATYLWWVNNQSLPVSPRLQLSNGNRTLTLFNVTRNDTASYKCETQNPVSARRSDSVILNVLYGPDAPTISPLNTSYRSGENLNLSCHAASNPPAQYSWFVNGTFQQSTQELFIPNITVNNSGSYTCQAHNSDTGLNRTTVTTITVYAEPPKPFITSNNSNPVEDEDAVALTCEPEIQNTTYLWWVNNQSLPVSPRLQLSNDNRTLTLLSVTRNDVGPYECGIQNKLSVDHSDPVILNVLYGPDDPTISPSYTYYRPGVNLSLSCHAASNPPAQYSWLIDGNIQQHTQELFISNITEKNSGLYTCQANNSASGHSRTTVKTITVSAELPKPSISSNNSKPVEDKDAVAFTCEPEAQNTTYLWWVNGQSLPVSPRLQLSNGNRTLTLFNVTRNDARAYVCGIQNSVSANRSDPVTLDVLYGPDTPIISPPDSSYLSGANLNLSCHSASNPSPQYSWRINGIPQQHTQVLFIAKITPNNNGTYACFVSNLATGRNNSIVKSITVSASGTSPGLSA

T2: human CEACAM6 on MKN-45 cells (human, UniProt P40199 35-320)
T2 construct: whole, on cells
T2 sequence (looked up): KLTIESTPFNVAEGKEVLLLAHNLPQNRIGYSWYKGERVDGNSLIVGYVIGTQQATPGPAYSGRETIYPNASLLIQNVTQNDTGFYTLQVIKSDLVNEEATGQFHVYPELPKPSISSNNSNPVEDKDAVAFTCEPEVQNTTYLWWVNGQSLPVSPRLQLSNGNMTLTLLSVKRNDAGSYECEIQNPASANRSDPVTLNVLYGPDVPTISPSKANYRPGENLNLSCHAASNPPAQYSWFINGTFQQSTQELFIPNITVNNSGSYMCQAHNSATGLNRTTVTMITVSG

T3: human CEACAM5 on MKN-45 cells (human, UniProt P06731 35-685)
T3 construct: endogenous CEA of MKN-45 gastric adenocarcinoma cells, which also carry CD47 and CEACAM6; UniProtKB P06731; also called CD66e
T3 sequence: T1 sequence

B1: K2AC5 CEAxCD47 bispecific antibody (bispecific antibody, human IgG1, kappa, lambda)
heavy: not shown
light 1: not shown
light 2: QSVLTQPPSVSAAPGQKVTISCSGSSSNIGYGLVSWYQQLPGTAPKLLIYAGNLRPSGIPDRFSGSKSGTSATLGITGLQTGDEADYYCGTWDFNYGVVFGGGTKLTVLGQPKAAPSVTLFPPSSEELQANKATLVCLISDFYPGAVTVAWKADSSPVKAGVETTTPSKQSNNKYAASSYLSLTPEQWKSHRSYSCQVTHEGSTVEKTVAPTECS
notes: kappa-lambda body, human IgG1, common heavy chain; CD47 arm light chain KA3 (K2), CEA arm light chain 1D9 (AC5)
B2: K2AC22 CEAxCD47 bispecific antibody (bispecific antibody, human IgG1, kappa, lambda)
heavy: not shown
light 1: not shown
light 2: B1 light 2 with G30A, Y31N, L33I, A51F, G52D, N95S, V98I
notes: kappa-lambda body, human IgG1, common heavy chain; CEA arm light chain 1G6 (AC22)
B3: K2AC39 CD47xCEA bispecific antibody (bispecific antibody, human IgG1, kappa, lambda)
heavy: not shown
light 1: not shown
light 2: QSVLTQPPSVSAAPGQKVTISCSGSSSEITASGVSWYQQLPGTAPKLLIYDNNKRPSGIPDRFSGSKSGTSATLGITGLQTGDEADYYCGTWDFPPSRFVFGGGTKLTVLGQPKAAPSVTLFPPSSEELQANKATLVCLISDFYPGAVTVAWKADSSPVKAGVETTTPSKQSNNKYAASSYLSLTPEQWKSHRSYSCQVTHEGSTVEKTVAPTECS
notes: K2 = KA3 CD47 light chain, AC39 = 1B2 CEA light chain
B4: K2AC28 CEAxCD47 bispecific antibody (bispecific antibody, human IgG1, kappa, lambda)
heavy: not shown
light 1: not shown
light 2: NFMLTQPHSVSESPGKTVTISCTRSSGSINDITVHWYQQRPGSSPTTVIYGYNARPSGVPDRFSGSIDSSSNSASLTISGLKTEDEADYYCQSWDGHGSAYVFGGGTKLTVLGQPKAAPSVTLFPPSSEELQANKATLVCLISDFYPGAVTVAWKADSSPVKAGVETTTPSKQSNNKYAASSYLSLTPEQWKSHRSYSCQVTHEGSTVEKTVAPTECS
notes: kappa-lambda body, human IgG1, common heavy chain; CEA arm light chain C11 (AC28)
B5: K2AC18 CEAxCD47 bispecific antibody (bispecific antibody, human IgG1, kappa, lambda)
heavy: not shown
light 1: not shown
light 2: SYVLTQPPSVSVAPGKTARITCGGNGIGDASVHWYQQKPGQAPVLVIYSTTTRPSGIPERFSGSNSGNTATLTISRVEAGDEADYYCQVWDGFGPRHRAVFGGGTKLTVLGQPKAAPSVTLFPPSSEELQANKATLVCLISDFYPGAVTVAWKADSSPVKAGVETTTPSKQSNNKYAASSYLSLTPEQWKSHRSYSCQVTHEGSTVEKTVAPTECS
notes: kappa-lambda body, human IgG1, common heavy chain; CEA arm light chain 1A2 (AC18)
B6: K2AC26 CEAxCD47 bispecific antibody (bispecific antibody, human IgG1, kappa, lambda)
heavy: not shown
light 1: not shown
light 2: QSALTQPASVSGSPGQSITISCTGTSSDVKYANAVSWYQQHPGKAPKLMIYSNSIRPSGVSNRFSGSKSGNTASLTISGLQAEDEADYYCSSYDPRGNLLIRVFGGGTKLTVLGQPKAAPSVTLFPPSSEELQANKATLVCLISDFYPGAVTVAWKADSSPVKAGVETTTPSKQSNNKYAASSYLSLTPEQWKSHRSYSCQVTHEGSTVEKTVAPTECS
notes: kappa-lambda body, human IgG1, common heavy chain; CEA arm light chain 2F7 (AC26)
B7: K2AC29 CEAxCD47 bispecific antibody (bispecific antibody, human IgG1, kappa, lambda)
heavy: not shown
light 1: not shown
light 2: QSALTQPASVSGSPGQSITISCTGTSSDVEFTNGVSWYQQHPGKAPKLMIYGFSSRPSGVSNRFSGSKSGNTASLTISGLQAEDEADYYCSSYDPPWHLLARVFGGGTKLTVLGQPKAAPSVTLFPPSSEELQANKATLVCLISDFYPGAVTVAWKADSSPVKAGVETTTPSKQSNNKYAASSYLSLTPEQWKSHRSYSCQVTHEGSTVEKTVAPTECS
notes: kappa-lambda body, human IgG1, common heavy chain; CEA arm light chain 2B5 (AC29)
B8: K2AC13 CEAxCD47 bispecific antibody (bispecific antibody, human IgG1, kappa, lambda)
heavy: not shown
light 1: not shown
light 2: QSALTQPASVSGSPGQSITISCTGTSSNVRYAAGVSWYQQHPGKAPKLMIYEVSNRPSGVSNRFSGSKSGNTASLTISGLQAEDEADYYCSSWDFEHGPAAKVFGGGTKLTVLGQPKAAPSVTLFPPSSEELQANKATLVCLISDFYPGAVTVAWKADSSPVKAGVETTTPSKQSNNKYAASSYLSLTPEQWKSHRSYSCQVTHEGSTVEKTVAPTECS
notes: kappa-lambda body, human IgG1, common heavy chain; CEA arm light chain 2B8 (AC13)
B9: K2AC25 CEAxCD47 bispecific antibody (bispecific antibody, human IgG1, kappa, lambda)
heavy: not shown
light 1: not shown
light 2: QSVLTQPPSVSAAPGQKVTISCSGSSSNIGITPVSWYQQLPGTAPKLLIYSNNFRPSGIPDRFSGSKSGTSATLGITGLQTGDEADYYCGTWDRTGHEIRPVFGGGTKLTVLGQPKAAPSVTLFPPSSEELQANKATLVCLISDFYPGAVTVAWKADSSPVKAGVETTTPSKQSNNKYAASSYLSLTPEQWKSHRSYSCQVTHEGSTVEKTVAPTECS
notes: kappa-lambda body, human IgG1, common heavy chain; CEA arm light chain 2F4 (AC25)
B10: K2AC27 CEAxCD47 bispecific antibody (bispecific antibody, human IgG1, kappa, lambda)
heavy: not shown
light 1: not shown
light 2: QSVLTQPPSVSGAPGQRVTISCTGSSSNIGYADKVHWYQQLPGTAPKLLIYNNSDRPSGVPDRFSGSKSGTSASLAITGLQAEDEADYYCQSYDGYNMLTAVFGGGTKLTVLGQPKAAPSVTLFPPSSEELQANKATLVCLISDFYPGAVTVAWKADSSPVKAGVETTTPSKQSNNKYAASSYLSLTPEQWKSHRSYSCQVTHEGSTVEKTVAPTECS
notes: kappa-lambda body, human IgG1, common heavy chain; CEA arm light chain 2C11 (AC27)
B11: K2AC10 CEAxCD47 bispecific antibody (bispecific antibody, human IgG1, kappa, lambda)
heavy: not shown
light 1: not shown
light 2: QSVLTQPPSVSGAPGQRVTISCTGSSSNIYANSNVHWYQQLPGTAPKLLIYSGSNRPSGVPDRFSGSKSGTSASLAITGLQAEDEADYYCQSYDPAHNLLTAVFGGGTKLTVLGQPKAAPSVTLFPPSSEELQANKATLVCLISDFYPGAVTVAWKADSSPVKAGVETTTPSKQSNNKYAASSYLSLTPEQWKSHRSYSCQVTHEGSTVEKTVAPTECS
notes: kappa-lambda body, human IgG1, common heavy chain; CEA arm light chain 1D5 (AC10)

Positions count from the first letter of the chain named.

The first experiment deals with T1, commercial shed CEA (BioRad). The experiment can be described thus: cell-based or functional assay.
For the molecule B1, the “shift of EC50 of the phagocytosis index curve of MKN-45 cells by 200 ng/mL shed CEA (FIG. 20B)” value was below 4 fold.
For the molecule B2, the “shift of EC50 of the phagocytosis index curve of MKN-45 cells by 200 ng/mL shed CEA (FIG. 20B)” value is below 4 fold.

The next experiment deals with T2, human CEACAM6 on MKN-45 cells. As to the kind of experiment: legend of FIG. 21A, FACS on MKN-45 cells. The method, then: (§1) Binding to target cells (MKN-45) expressing CD47, CEACAM5 and CEACAM6 was assessed by FACS.
(§2) Cells are harvested, counted, checked for viability and resuspended at 3×10⁶ cells/ml in FACS buffer (PBS 2% BSA, 0.1% NaN3). 100 μl of the cell suspension are distributed in V-bottom 96-well plates (3×10⁵ cells/well). The supernatant is removed by centrifugation 3 minutes at 4° C., 1300 rpm. Increasing concentrations of the antibody according to the invention are then added into the wells and incubated for 15 minutes at 4° C. Cells are washed twice with cold FACS buffer and re-incubated for further 15 minutes at 4° C. with the PE (R-phycoerythrin)-conjugated mouse anti-human IgG Fc secondary antibody (SouthernBiotech, pre-diluted 1:100 in FACS buffer). Cells are washed twice with cold FACS buffer and resuspended in 300 μl FACS buffer with 1:15000-diluted SytoxBlue (Life Technologies). Fluorescence is measured using a Cytoflex […]. Binding curves and EC50 values are obtained and calculated using GraphPad Prism? software. In the same manner binding of MAB CEA or MAB CEA1 to MKN-45 cells can be tested.
As for B3, the binding result is “binds”.

Another experiment shares this target. The experiment can be described thus: statement in the legend of FIG. 21A (FACS on MKN-45 cells). The protocol:
as §1, §2
As for B2, the binding result is “no binding”.

Another experiment concerns the target T3, human CEACAM5 on MKN-45 cells. As to the kind of experiment: flow cytometry on MKN45 CEA+ cancer cells (also carry CD47). The method, then:
as §2
For the molecule B4, the response was half-maximal at 52.5 nM (EC50).
Same read-out and setting: with B5 the figure was 132 nM; with B6, 12.7 nM.
Turning to B7, the EC50 (usually the midpoint of the concentration-response curve) was 14.5 nM.
Same read-out and setting: the result for B8 reads 190 nM; that for B9, 13 nM.
Regarding B10, the EC50 was determined as 12.5 nM.
Still for that read-out and setting: the result for B2 reads 16.5 nM; that for B11, 1.15 nM.

For a further experiment the target is unchanged. The experiment can be described thus: flow cytometry (FACS) on MKN-45 cells, without shed CEA. In general terms: In flow cytometry, cells or beads pass a laser one at a time.
For the molecule B1, the EC50 (read off the curve) – broadly, the concentration giving half of the maximal effect – was around 0.3 µg/mL.

A further experiment has the same target. The experiment can be described thus: flow cytometry on MKN45 CEA+ cancer cells (also carry CD47); MKN45 CEA+ cancer cells. The protocol: as §2
In the case of B1, the EC50 is 11.3 nM.

The next experiment has the same target. As to the kind of experiment: flow cytometry (FACS) on MKN-45 cells, which express CD47, CEACAM5 and CEACAM6.
In the case of B2, the “EC50 (read off the curve)” value was around 1 µg/mL.

The target in another experiment is T4, human CD47 on MKN45 cells (human, UniProt Q08722 19-323).
T4 construct: whole, on cells; also called IAP
The experiment can be described thus: inhibition of SIRPα-mouseFc binding to CD47 on MKN45 cells, imaging (CX5); column 'SIRPα inhibition potency'. The text has this: Experimental set-up for the measurement of the SIRPα inhibition potency data shown for bispecific antibodies of this invention (results see table 2):
The detection of bound SIRPα cell-based assay monitoring the interaction of soluble SIRPα with human CD47 expressed at the surface of MKN45 is used for the detection of the blocking activity. Dose-response experiments with bispecific antibodies according to the invention allow determination of an IC50 value.
MKN45 cancer cells, expressing both CD47 and CEACAM5, are stained with CFSE violet to allow the imaging system (CX5) to detect the cells. Briefly, 3,000 stained MKN45 cells per well are seeded in a 384 optical well plate (Costar) and incubated for 50 minutes with increased concentrations of bispecific antibodies of the invention (1.9 pM to 333 nM, in quadruplicates). Then, a fixe concentration of SIRPα—mouseFc premixed with anti-mouse IgG-Fc AF647 coupled antibody (Jackson Immunoresearch diluted 1:2000) is added at 50 ng/mL final. After an incubation of 3H30 plates are acquired with the imaging system (CX5, Thermofisher) and fluorescence signals emitted by the detected bound SIRPα is recorded by the software dedicated to the imaging system. Fluorescence signals are plotted according to the dose range tested and IC50 are calculated by the software (Prism, Graphpad).
In the case of B4, the IC50 (commonly the concentration at which inhibition is half-maximal) was found to be 0.95 nM.
On the same count and under the same terms, the result for B5 reads 7 nM; that for B6, 0.32 nM; that for B7, 0.72 nM.
On the same count and under the same terms, with B8 the figure was 4 nM; with B9, 0.22 nM.
The molecule B10 gave a half-inhibitory concentration (IC50) of 0.86 nM.
Same read-out and setting: with B1 the figure was 0.4 nM; with B2, 0.37 nM; with B11, 0.22 nM.

A further experiment addresses T3, human CEACAM5 on MKN-45 cells. The experiment can be described thus: flow cytometry (FACS) on MKN-45 cells, which express CD47, CEACAM5 and CEACAM6; the legend says K2AC39 binds CEACAM5 and CEACAM6, and the curve does not separate the two.
With B3, the “EC50 (read off the curve)” value was around 3 µg/mL.
